Positions count from the first letter of the chain named. Names and notes keep the numbering of the source.

Data on 15 molecules can be found in paper PMC10786891, “Massively parallel profiling of RNA-targeting CRISPR-Cas13d”.

The chains are these.
B1: target 1 insU 3' of 13,insC 3' of 8 (mixed)
RNA 1: CACCCGUGCAAAAAUGCAGGGGUCUAAAACUGAGCGGAUAACCUCUCUAUGG
RNA 2: GGGAAUGGAUCCACAUCUACGAAUUCGUACCAUAGAGAGUGUUAUCCCGCUCACCGAGAUCGGAAGAGCACACGU
B2: target 1 insC 3' of 10,insG 3' of 2 (mixed)
RNA 1: B1 RNA 1
RNA 2: B1 RNA 2 with U40G, G41U, U43C, C48G, G49C, C50U, U51C, C52G
B3: target 1 A1C,A18C (mixed)
RNA 1: B1 RNA 1
RNA 2: GGGAAUGGAUCCACAUCUACGAAUUCGUACCAUCGAGAGGUUAUCCGCUCCCCGAGAUCGGAAGAGCACACGU
B4: target 1 C6G,A18C (mixed)
RNA 1: B1 RNA 1
RNA 2: B3 RNA 2 with C46G, C51A
B5: target 1 A1U,A18C (mixed)
RNA 1: B1 RNA 1
RNA 2: B3 RNA 2 with C51U
B6: target 1 insU 3' of 18,insU 3' of 17 (mixed)
RNA 1: B1 RNA 1
RNA 2: B1 RNA 2 with G35U, A36G, G37U, U40A, U42G, A44U, U45A, C46U
B7: target 1 A16G,C21U (mixed)
RNA 1: B1 RNA 1
RNA 2: B3 RNA 2 with C31U, C34A, A36G, C51A
B8: target 1 insU 3' of 17,insU 3' of 1 (mixed)
RNA 1: B1 RNA 1
RNA 2: GGGAAUGGAUCCACAUCUACGAAUUCGUACCAUAGUAGAGGUUAUCCGCUCAUCCGAGAUCGGAAGAGCACACGU
B9: target 1 insU 3' of 13,insG 3' of 4 (mixed)
RNA 1: B1 RNA 1
RNA 2: B1 RNA 2 with C48G, G49C, C50G
B10: target 1 C4U,G5U (mixed)
RNA 1: B1 RNA 1
RNA 2: B3 RNA 2 with C34A, G47U, C48U, C51A
B11: target 1 C6A,A9G (mixed)
RNA 1: B1 RNA 1
RNA 2: B3 RNA 2 with C34A, A43G, C46A, C51A
B12: target 1 A18C (mixed)
RNA 1: B1 RNA 1
RNA 2: B3 RNA 2 with C51A
B13: target 1 C2A,G17A (mixed)
RNA 1: B1 RNA 1
RNA 2: B3 RNA 2 with C34A, G35A, C50A, C51A
B14: target 1 A14C,G15A (mixed)
RNA 1: B1 RNA 1
RNA 2: B3 RNA 2 with C34A, G37A, A38C, C51A
B15: target 1 insC 3' of 20,insU 3' of 6 (mixed)
RNA 1: B1 RNA 1
RNA 2: B1 RNA 2 with U33C, A34U, G35A, A36G, G37A, A38G, G39A, U40G, C48U

In this data set the target is T1, EsCas13d, nuclease-dead (Eubacterium siraeum, UniProt B0MS50, R295A;H300A;R849A;H854A).
T1 sequence: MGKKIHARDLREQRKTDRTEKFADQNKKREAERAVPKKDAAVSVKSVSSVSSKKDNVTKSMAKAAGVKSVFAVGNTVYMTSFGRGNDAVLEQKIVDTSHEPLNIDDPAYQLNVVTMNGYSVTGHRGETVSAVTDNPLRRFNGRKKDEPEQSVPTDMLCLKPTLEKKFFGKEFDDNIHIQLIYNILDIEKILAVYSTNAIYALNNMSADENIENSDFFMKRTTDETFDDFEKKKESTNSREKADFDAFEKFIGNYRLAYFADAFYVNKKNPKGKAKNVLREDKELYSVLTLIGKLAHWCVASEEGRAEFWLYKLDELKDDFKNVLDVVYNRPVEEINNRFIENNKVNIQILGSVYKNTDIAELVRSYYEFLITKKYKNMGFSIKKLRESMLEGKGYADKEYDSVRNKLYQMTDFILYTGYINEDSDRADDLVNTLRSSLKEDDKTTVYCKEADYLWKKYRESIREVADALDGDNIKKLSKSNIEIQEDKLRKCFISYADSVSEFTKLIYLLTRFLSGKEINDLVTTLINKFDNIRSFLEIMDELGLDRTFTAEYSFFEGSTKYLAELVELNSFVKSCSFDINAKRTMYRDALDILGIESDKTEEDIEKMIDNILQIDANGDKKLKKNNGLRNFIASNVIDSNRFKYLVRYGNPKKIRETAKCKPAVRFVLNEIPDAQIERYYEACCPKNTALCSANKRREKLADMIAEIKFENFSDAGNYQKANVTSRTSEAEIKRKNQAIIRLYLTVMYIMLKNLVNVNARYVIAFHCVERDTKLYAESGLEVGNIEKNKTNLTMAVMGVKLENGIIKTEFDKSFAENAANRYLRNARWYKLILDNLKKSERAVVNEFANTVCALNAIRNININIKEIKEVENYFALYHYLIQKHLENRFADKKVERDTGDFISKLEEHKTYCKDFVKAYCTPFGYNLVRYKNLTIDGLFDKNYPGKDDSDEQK
Nature of the data set: crRNA (strand 1, pre-loaded); Mg2+; 40 mM Tris-HCl pH 7.5, 150 mM NaCl, 6 mM MgCl2, 1 mM DTT, 0.1% Tween-20, 0.2 mg/ml BSA; 25 C; 10 min per concentration, then washed. As to conditions: tags: His6-TwinStrep-SUMO cleaved; N-terminal SNAP kept (SNAP-Surface 488); label: 3' end held by stalled T7 RNA polymerase.
As to B1, the affinity, expressed as Kd, was 14.7 ± 1.6 nM.

Regarding B2, the Kd came to 24.8 ± 2.1 nM.

B3 displayed a Kd of 75 ± 29 nM.

Consider B4, for which binding was put at a Kd of 62 ± 8 nM.

Molecule B5 yielded a Kd of 66 ± 12 nM.

The molecule B6 showed a Kd of 47 ± 8 nM.

As for B7, binding was put at a Kd of 7.65 ± 0.33 nM.

As for B8, the Kd was found to be 22.4 ± 2.3 nM.

The molecule B9 yielded a Kd of 14.2 ± 2 nM.

Molecule B10 registered a Kd of 49 ± 4 nM.

B11 displayed a Kd of 11.5 ± 0.6 nM.

For B12, the affinity, expressed as Kd, was 51.3 ± 3.5 nM.

Regarding B13, binding was put at a Kd of 47 ± 6 nM.

For the molecule B14, binding was put at a Kd of 32 ± 2.8 nM.

As for B15, the equilibrium dissociation constant (Kd) worked out at 11.3 ± 0.9 nM.

One may read the Kd as the concentration at which binding is half-saturated. Low readings indicate higher affinity, high ones lower affinity.
